Test results reported in patent US20220372138A1 (IOMX THERAPEUTICS, published 2022).

B1: A-025 (scFv format) (scFv, V domains shown)
VH: QVQLVQSGAEVKKPGSSVKVSCKASGGTFSSYAISWVRQAPGQGLEWMGGIIPIFGTANYAQKFQGRVTITADESTSTAYMELTSLRSEDTAVYYCARGGWLRQNWFDPWGQGTLVTVSS
VL: SSELTQDPAVSVALGQTVRITCQGDSLRSYYASWYQQKPGQAPVLVIYGKNNRPSGIPDRFSGSSSGNTASLTITGAQAEDEADYYCNSRDSSGNHPRVFGGGTKLTVL
notes: scFv
B2: A-031 (scFv format) (scFv, V domains shown)
VH: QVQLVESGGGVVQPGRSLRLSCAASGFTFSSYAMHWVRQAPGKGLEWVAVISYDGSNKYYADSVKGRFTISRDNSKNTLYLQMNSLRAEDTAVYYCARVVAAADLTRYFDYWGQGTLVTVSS
VL: EIVLTQSPGTVSLSPGERATLSCRASQSVPKNYLAWFQQKPGQAPRLVIHTASSRAPGIPDRFTGSGSGTDFTLTISRLEPEDFAVYYCQQYGTSPNTFGQGTKLDIK
notes: scFv
B3: C-017 (Fab format) (Fab, V domains shown)
VH: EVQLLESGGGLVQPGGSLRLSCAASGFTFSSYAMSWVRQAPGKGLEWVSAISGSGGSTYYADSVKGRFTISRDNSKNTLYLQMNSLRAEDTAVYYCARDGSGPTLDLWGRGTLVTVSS
VL: DIQMTQSPSSLSASVGDRVTITCRASQSISSYLNWYQQKPGKAPKLLIYAASSLQSGVPSRFSGSGSGTDFTLTISSLQPEDFATYYCQQHRYIPPWTFGQGTKVEIK
notes: Fab from E. coli lysate
B4: A-033 (scFv format) (scFv, V domains shown)
VH: QVQLVQSGAEVKKPGASVKVSCKASGYTFTSYGISWVRQAPGQGLEWMGWISAYNGNTNYAQKLQGRVTMTTDTSTSTAYMELRSLRSDDTAVYYCARDHSIVGATTFDYWGQGTLVTVSS
VL: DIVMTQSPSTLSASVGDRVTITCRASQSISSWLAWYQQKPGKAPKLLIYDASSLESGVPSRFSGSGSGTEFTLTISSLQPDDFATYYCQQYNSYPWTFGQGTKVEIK
notes: scFv
B5: C-022 (IgG1 format) (antibody, V domains shown)
VH: EVQLLESGGGLVQPGGSLRLSCAASGFTFSSYAMSWVRQAPGKGLEWVSAISGSGGSTYYADSVKGRFTISRDNSKNTLYLQMNSLRAEDTAAYYCARMAAGASWGTFDYWSQGTLVTVSS
VL: DIQMTQSPSSLSASVGDRVTITCRASQSISSYLNWYQQKPGKAPKLLIYAASSLQSGVPSRFSGSGSGTDFTLTISSLQPEDFATYYCQQRSGSPLTFGQGTKVEIK
B6: C-020 (Fab format) (Fab, V domains shown)
VH: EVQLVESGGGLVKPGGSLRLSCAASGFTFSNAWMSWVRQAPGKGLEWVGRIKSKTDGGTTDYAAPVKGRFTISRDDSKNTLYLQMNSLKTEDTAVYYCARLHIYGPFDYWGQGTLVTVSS
VL: SYELTQPPSVSVSPGQTASITCSGDKLGDKYASWYQQKPGQSPVLVIYQDSKRPSGIPERFSGSNSGNTATLTISGTQAEDEADYYCLSYLARSGSVVFGGGTKLTVL
notes: Fab from E. coli lysate
B7: C-015 (IgG1 format) (antibody, V domains shown)
VH: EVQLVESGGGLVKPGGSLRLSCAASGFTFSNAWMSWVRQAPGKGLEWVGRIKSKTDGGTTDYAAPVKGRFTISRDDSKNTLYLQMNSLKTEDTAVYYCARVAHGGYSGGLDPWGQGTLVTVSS
VL: SYELTQPPSVSVSPGQTASITCSGDKLGDKYASWYQQKPGQSPVLVIYQDSKRPSGIPERFSGSNSGNTATLTISGTQAEDEADYYCSSTGTAHTLAVFGGGTKLTVL
B8: C-024 (Fab format) (Fab, V domains shown)
VH: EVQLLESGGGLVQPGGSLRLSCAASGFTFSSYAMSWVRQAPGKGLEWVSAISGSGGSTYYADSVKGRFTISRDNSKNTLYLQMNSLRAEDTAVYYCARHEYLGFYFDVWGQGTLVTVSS
VL: SYELTQPPSVSVSPGQTASITCSGDKLGDKYASWYQQKPGQSPVLVIYQDSKRPSGIPERFSGSNSGNTATLTISGTQAEDEADYYCLASHRLTLNYVFGGGTKLTVL
notes: Fab from E. coli lysate
B9: C-018 (IgG1 format) (antibody, V domains shown)
VH: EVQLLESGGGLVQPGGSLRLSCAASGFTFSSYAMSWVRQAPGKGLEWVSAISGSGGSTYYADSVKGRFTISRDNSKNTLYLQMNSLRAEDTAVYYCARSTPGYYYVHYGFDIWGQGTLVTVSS
VL: SYELTQPPSVSVSPGQTASITCSGDKLGDKYASWYQQKPGQSPVLVIYQDSKRPSGIPERFSGSNSGNTATLTISGTQAEDEADYYCQAWSTSTHSWVFGGGTKLTVL
B10: A-028 (scFv format) (scFv, V domains shown)
VH: QVQLVQSGAEVKKPGSSVKVSCKASGGTFSSYAISWVRQAPGQGLEWMGGIIPIFGTANYAQKFQGRVTITADESTSTAYMELSSLRSEDTAVYYCARVGVEYQLLWYFDYWGQGTLVTVSS
VL: DIQMTQSPSSLSASVGDRVTLTCRTSQTISNYLNWYQQKPGKAPKLLVYAASNLQSWVPSRFSGSGSGTDFTLTISSLQPEDFATYYCQQSYNASFGGGTKVEFK
notes: scFv
B11: A-027 (scFv format) (scFv, V domains shown)
VH: QVQLVQSGAEVKKPGSSVKVSCKASGGTFSSYAISWVRQAPGQGLEWMGGIIPIFGTANYAQKFQGRVTITADKSTSTAYMELSSLRSEDTAVYYCARARGSTWGYFDYWGQGTLVTVSS
VL: EIVLTQSPASLSLSPGERVTLSCRASQSVSNYLAWYQQKPGQAPRLLIYDASNRATGIPARFSGSGSGTDFTLTISSLEPEDFAVYYCQQRDNWPLTFGGGTKVEIK
notes: scFv
B12: A-003 (scFv format) (scFv, V domains shown)
VH: VQLVQSGAEVKKPGSSVKVSCKASGGTFSSYAISWVRQAPGQGLEWMGGIIPIFGTANYAQKFQGRVTITADESTSTAYMELSSLRSEDTAVYYCASPRIQLWAAGGFDYWGQGTLVTVSS
VL: QSALTQPASVSGSPGQSITISCTGTSSDVGGYNLVSWYQQHPGKAPKLMIYDVSNRPSGVSNRFSGSKSGNTASLTISGLQAEDEADYYCSSFTTSTTLVFGGGTKLTVL
notes: scFv
B13: A-032 (scFv format) (scFv, V domains shown)
VH: QVQLVQSGAEVKKPGASVKVSCKASGYTFTGYYMHWVRQAPGQGLEWMGWMNPNSGNTGYAQKFQGRVTMTRNTSISTAYMELSSLRSEDTAVYYCARGGQQQLVLDDYWGQGTLVTVSS
VL: not shown
B14: A-030 (scFv format) (scFv, V domains shown)
VH: QVQLVQSGAEVKKPGASVKVSCKASGYTFTGYYMHWVRQAPGQGLEWMGWINPNSGNTGYAQKFQGRVTMTRNTSISTAYMELSSLRSEDTAVYYCARGGQQQLVLDDYWGQGTLVTVSS
VL: DIQLTQSPSTLSASVGDRVTITCRASQSIGGWLAWYQHKPGKAPKLLIYAASSLQSGVPSRFSGSGSGTDFTLTISSLQPEDFATYYCRQSYSTPPTFGQGTKVEIK
notes: scFv
B15: A-037 (scFv format) (scFv, V domains shown)
VH: QVQLVQSGAEVKKPGASVKVSCKASGYTFTGYYMHWVRQAPGQGLEWMGWINPNSGNTGYAQKFQGRVTMTRNTSISTAYMELSSLRSEDTAVYYCARGGQQQLVLDDYWGQGTLVTVSS
VL: NFMLTQPHSVSESPGKTVTISCTGSSGSIASNYVQWYQQRPGSAPTTVIYEDNQRPSGVPDRFSGSIDSSSNSASLTISGLKTEDEADYYCQSYDSSNQRVFGGGTKLTVL
notes: scFv
B16: A-036 (scFv format) (scFv, V domains shown)
VH: QVQLVQSGAEVKKPGASVKVSCKASGYTFTGYYMHWVRQAPGQGLEWMGWINPNSGGTNYAQKFQGRVTMTRNTSISTAYMELSSLRSEDTAVYYCARGGQQQLVLDDYWGQGTLVTVSS
VL: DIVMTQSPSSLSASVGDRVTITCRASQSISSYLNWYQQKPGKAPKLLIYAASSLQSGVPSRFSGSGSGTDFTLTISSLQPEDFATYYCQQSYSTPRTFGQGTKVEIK
notes: scFv
B17: A-029 (scFv format) (scFv, V domains shown)
VH: QVQLVQSGAEVKKPGSSVKVSCKASGGTFSSYAISWVRQAPGQGLEWMGGIIPIFGTANYAQKFQGRVTITADESTGTAYMELSSLRSEDTAVYYCARSYYYYYGMDVWGQGTTVTVSS
VL: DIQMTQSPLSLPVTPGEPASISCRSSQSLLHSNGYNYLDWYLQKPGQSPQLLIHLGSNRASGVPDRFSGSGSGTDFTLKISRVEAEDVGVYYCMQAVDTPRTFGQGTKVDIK
notes: scFv
B18: C-011 (IgG1 format) (antibody, V domains shown)
VH: QVQLVQSGAEVKKPGSSVKVSCKASGGTFSSYAISWVRQAPGQGLEWMGGIIPIFGTANYAQKFQGRVTITADESTSTAYMELSSLRSEDTAVYYCARHSTPSFLQYWGQGTLVTVSS
VL: SYELTQPPSVSVSPGQTASITCSGDKLGDKYASWYQQKPGQSPVLVIYQDSKRPSGIPERFSGSNSGNTATLTISGTQAEDEADYYCAVYPAHASARWVFGGGTKLTVL

Experiments:
[1] = molecular target: T1, extracellular domain (ECD) of human IGSF11 (VSIG3), recombinant (human, UniProt Q5DX21 23-241); assay: ELISA RFU 0.1-0.5
T1 construct: biotinylated where captured on streptavidin; tags of the reagent not always stated; also called IGSF11 (ECD domain); ECD-IGSF11
T1 sequence: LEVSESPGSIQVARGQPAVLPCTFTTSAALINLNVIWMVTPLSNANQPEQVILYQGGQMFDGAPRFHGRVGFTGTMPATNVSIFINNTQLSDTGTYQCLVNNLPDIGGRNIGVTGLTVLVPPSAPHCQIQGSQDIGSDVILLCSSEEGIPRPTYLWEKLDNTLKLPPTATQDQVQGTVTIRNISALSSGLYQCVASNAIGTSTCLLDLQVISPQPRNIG

[2] = molecular target: T2, ECD of murine IGSF11, recombinant biotinylated (mouse, UniProt P0C673 23-240); assay: ELISA RFU 0.1-0.5
T2 construct: whole entry named; also called Mouse IGSF11
T2 sequence: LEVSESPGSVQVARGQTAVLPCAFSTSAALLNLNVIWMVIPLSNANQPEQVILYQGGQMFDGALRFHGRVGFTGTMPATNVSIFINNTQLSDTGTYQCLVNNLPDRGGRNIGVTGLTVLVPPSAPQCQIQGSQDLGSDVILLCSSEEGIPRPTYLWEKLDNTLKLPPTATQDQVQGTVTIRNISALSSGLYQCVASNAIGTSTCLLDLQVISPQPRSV

[3] = molecular target: T2, ECD of murine IGSF11, recombinant …; assay: Fab ELISA
Experimental: In order to identify IGSF11-specific binding ABPs, monoclonal Fabs expressed from E. coli were generated from the enriched set of anti-IGFS11 antibody-expressing phage. After bacterial lysis, the Fabs were tested for their binding properties and cross-reactivity profile on recombinant ECD-IGSF11 (human, mouse and cynomolgus monkey) by standard ELISA. Briefly, biotinylated recombinant ECD-IGSF11 from human, mouse, or cynomolgus monkey were immobilized at 2 ug/mL on a streptavidin-coated 384-well Maxisorp plate. The surface was blocked with 2% (w/v) skim milk powder in PBST. After three wash cycles with PBST, a bacterial lysate of each of the anti-IGSF11 Fabs in 2% (w/v) skim milk powder was applied to the immobilized IGSF11 and incubated for 1 h. After removing all unbound Fab by 3 wash cycles with PBST, bound Fab antibodies were detected with a goat anti-human Fab antibody conjugated with horseradish peroxidase. After three wash cycles with PBST the ELISA was developed with TMB substrate.

[4] = molecular target: T3, IgC2 domain of human IGSF11 fused to murine IgG2a Fc (human, UniProt Q5DX21 137-241); assay: IgG ELISA;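 also: ELISA binding of IgG antibodies to plate-coated IGSF11 Fc-fusion proteins (full-length ECD, IgV or IgC2 domain), detected via HRP-labelled anti-human IgG with TMB development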
T3 construct: not shown: murine IgG2a Fc-region
T3 sequence: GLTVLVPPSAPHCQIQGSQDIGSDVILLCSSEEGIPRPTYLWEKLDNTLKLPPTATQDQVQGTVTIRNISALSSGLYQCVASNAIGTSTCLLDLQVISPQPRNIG

[5] = molecular target: T4, full-length ECD of human IGSF11 fused to murine Fc (human, UniProt Q5DX21 23-241); assay: IgG ELISA;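 also: ELISA binding of IgG antibodies to plate-coated IGSF11 Fc-fusion proteins (full-length ECD, IgV or IgC2 domain), detected via HRP-labelled anti-human IgG with TMB development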
T4 construct: also called Fc-fusion IGSF11 ECD; not shown: murine Fc
T4 sequence: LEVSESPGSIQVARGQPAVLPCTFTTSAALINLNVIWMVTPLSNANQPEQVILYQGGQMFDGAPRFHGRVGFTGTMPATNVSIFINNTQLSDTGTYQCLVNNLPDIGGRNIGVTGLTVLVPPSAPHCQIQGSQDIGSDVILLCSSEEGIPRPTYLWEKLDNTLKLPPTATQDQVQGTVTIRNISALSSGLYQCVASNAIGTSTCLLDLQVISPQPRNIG

Binder	ELISA binding signal (RFU) [1] [rfu]	ELISA binding signal (RFU) [2] [rfu]	A450 [3]	EC50 [4] [nM]	EC50 [5] [nM]
B1	0.1 to 0.5	0.1 to 0.5			
B2	0.1 to 0.5	0.1 to 0.5			
B3			< 1		
B4	0.1 to 0.5	0.1 to 0.5			
B5				1 to 20	1 to 20
B6			< 1		
B7				1 to 20	20 to 100
B8			< 1		
B9				< 1	1 to 20
B10	0.1 to 0.5	0.1 to 0.5			
B11	0.1 to 0.5	0.1 to 0.5			
B12	0.1 to 0.5	0.1 to 0.5			
B13	0.1 to 0.5	0.1 to 0.5			
B14	0.1 to 0.5	0.1 to 0.5			
B15	0.1 to 0.5	0.1 to 0.5			
B16	0.1 to 0.5	0.1 to 0.5			
B17	0.1 to 0.5	0.1 to 0.5			
B18				< 1	< 1
